Data as given in PMC7714071, “Interaction of amyloid beta with humanin and acetylcholinesterase is modulated by ATP” (FEBS Open Bio, 2020).

Tests used:
[1] = tested on: AChE-Aβ complex (H1299 cell-conditioned media); assay: ELISA, AChE found in a complex with Aβ in H1299 cell-conditioned media; format: binding, human; settings: Fig. 5C,D
Description: Human NSCLC cell lines, A549 (ATCC CCL‐185) and H1299 (ATCC CRL‐5803), were purchased from the American Type Culture Collection (ATCC, Manassas, VA, USA). Cells were seeded as we reported earlier in 5 mL HyClone Dulbecco's modified Eagle's medium/nutrient mixture F‐12 (DMEM/F12) (GE Healthcare Life Sciences, Pittsburgh, PA, USA), supplemented with 10% Fetalgro bovine growth serum (FBS; RMBIO, Missoula, MT, USA), 50 U·mL^−1 penicillin, and […] streptomycin (Invitrogen, Life Technologies, Carlsbad, CA, USA) in 25‐cm^2 tissue culture flasks, and allowed to grow overnight in an incubator at 37 °C, 95% humidity, and 5% CO2. The cells were counted after trypan blue staining, with a hemocytometer.
ELISAs were carried out as we previously reported. […] TBST was then used to wash the wells 4× before proceeding in one of two ways: (a) biotinylated samples were analyzed by adding 100 µL streptavidin–HRP conjugate in TBST (1 : 2500 dilution) to the samples followed by incubation for 3 h at RT on a shaker, or (b) samples without biotin were analyzed by adding 100 µL TBST containing the primary antibody as per the manufacturer's recommendation, incubating for 3 h at RT on a shaker, followed by washing the wells 4× with TBST. […] The reaction was stopped with 100 µL 2 M H2SO4 after incubating at RT for 0.5–15 min, resulting in a yellow color change, measured by absorbance at 450 nm. […]

Aβ42 [2] = settings: HN and AChE compared; cited from earlier work
Source text: Humanin has been previously reported to bind amino acid residues 17–28 of Aβ (Fig. 1). AChE is also known to bind Aβ (1–16) and the Aβ (12–28) region (Fig. 1). Since the binding sites of AChE and HN on Aβ are overlapping, we previously investigated whether HN and AChE can simultaneously bind Aβ [79].

Aβ42 [3] = settings: cited from earlier work
Source text: Almost all types of cells produce amyloid beta (Aβ), a peptide well recognized for its role in the development and progression of different stages of Alzheimer's disease (AD). The Aβ peptide is ~ 4 kDa and derived from the sequential processing of the higher molecular weight amyloid precursor protein by two membrane‐bound endoproteases, β‐ and γ‐secretase. Different C‐terminal Aβ heterogeneity results from processing by γ‐secretase, where Aβ40 represents the most abundant isoform (~ 90%) as compared to Aβ42 (~ 10%). Self‐assembled Aβ40/42 peptides into amyloid fib ... || Amino acid residues involved in direct interactions between HN and Aβ40 were identified previously by molecular modeling. The specific epitopes at the binding interface between HN and Aβ40 were identified, by proteolytic epitope excision and extraction in addition to affinity–mass spectrometric data analysis, to be HN (5–15) and Aβ (17–28). […] Inhibiting the 17–28 region of Aβ reduced aggregation of the neurotoxic amyloid fibrils and related cytotoxicity in SH‐SY5Y, a human neuroblastoma cell ... || Acetylcholinesterase (AChE) is an enzyme known for its role in terminating acetylcholine‐mediated neurotransmission at the synaptic cleft. The majority of the cortical AChE in the Alzheimer's brain is mainly associated with the amyloid core of senile plaques. […]

B1: acetylcholinesterase (protein)
chain: EGREDAELLVTVRGGRLRGIRLKTPGGPVSAFLGIPFAEPPMGPRRFLPPEPKQPWSGVVDATTFQSVCYQYVDTLYPGFEGTEMWNPNRELSEDCLYLNVWTPYPRPTSPTPVLVWIYGGGFYSGASSLDVYDGRFLVQAERTVLVSMNYRVGAFGFLALPGSREAPGNVGLLDQRLALQWVQENVAAFGGDPTSVTLFGESAGAASVGMHLLSPPSRGLFHRAVLQSGAPNGPWATVGMGEARRRATQLAHLVGCPPGGTGGNDTELVACLRTRPAQVLVNHEWHVLPQESVFRFSFVPVVDGDFLSDTPEALINAGDFHGLQVLVGVVKDEGSYFLVYGAPGFSKDNESLISRAEFLAGVRVGVPQVSDLAAEAVVLHYTDWLHPEDPARLREALSDVVGDHNVVCPVAQLAGRLAAQGARVYAYVFEHRASTLSWPLWMGVPHGYEIEFIFGIPLDPSRNYTAEEKIFAQRLMRYWANFARTGDPNEPRDPKAPQWPPYTAGAQQYVSLDLRPLEVRRGLRAQACAFWNRFLPKLLSATDTLDEAERQWKAEFHRWSSYMVHWKNQFDHYSKQDRCSDL
[1]
  AChE detected in complex with Aβ: No AChE was detected above background
Aβ42 [2]
  affinity for Aβ42: comparable affinities
Aβ42 [3]
  effect on Aβ42 oligomeric formation: increases Aβ42 oligomeric formation
